From patent US20220235142A1 (SHANGHAI GENBASE BIOTECHNOLOGY, published 2022) come the findings set out here.

Experiment [1] has as its target T1, CEACAM6 protein overexpressed on CHO cells (UniProt P40199 35-320, limits assumed).
T1 construct: whole, on cells; also called CHO-CEACAM6
T1 sequence (looked up): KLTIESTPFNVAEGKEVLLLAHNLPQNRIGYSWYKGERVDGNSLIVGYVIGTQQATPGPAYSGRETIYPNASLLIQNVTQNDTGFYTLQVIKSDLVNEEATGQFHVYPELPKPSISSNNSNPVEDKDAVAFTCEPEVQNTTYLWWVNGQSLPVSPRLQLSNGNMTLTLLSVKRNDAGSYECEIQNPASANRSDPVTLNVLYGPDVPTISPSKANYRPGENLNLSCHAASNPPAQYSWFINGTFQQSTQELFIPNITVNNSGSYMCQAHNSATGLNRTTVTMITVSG
The experiment can be described thus: flow cytometry on CHO-CEACAM6 cells. Here is the method:
(§1) Flow cytometry (FACS) was used to detect the binding of antibody to LOVO tumor cells that naturally expressed human CEACAM5 protein or cells that overexpressed different CEACAM proteins. In short, cells were first collected, washed with PBS, counted, and diluted to obtain 2*10⁶/ml cell suspension; 10 μl of an antibody working solution was added to 100 μl of the cell suspension, and incubated at 4° C. for 30 min in the dark; after washing twice with PBS, a corresponding fluorescent-labeled secondary antibody Goat-anti-Human IgG (H+L) (Invitrogen) was added, incubated at 4° C. for 30 min in the dark, after washing twice with PBS, it was suspended in 400 μl of FACS buffer, and the binding situations of the antibody to the cells were detected by FACS.
(§2) The binding situations of the supernatants of the chimeric antibody UM05-6L and the control antibody UM05-8 (anti-CEACAM5 antibody, prepared by the hybridoma method in our laboratory) to different cells at a concentration of 3 μg/mL were detected, in which SW620-CEACAM1 was a cell overexpressing CEACAM1 protein, SW620-CEACAM3 was a cell overexpressing CEACAM3 protein, CHO-CEACAM6 was a cell overexpressing CEACAM6 protein, CHO-CEACAM7 was a cell overexpressing CEACAM7 protein, and CHO-CEACAM8 was a cell overexpressing CEACAM8 protein. […]

Experiment [2] deals with T2, CEACAM1 protein overexpressed on SW620 cells (UniProt P13688 35-526, limits assumed).
T2 construct: whole, on cells; also called SW620-CEACAM1
T2 sequence (looked up): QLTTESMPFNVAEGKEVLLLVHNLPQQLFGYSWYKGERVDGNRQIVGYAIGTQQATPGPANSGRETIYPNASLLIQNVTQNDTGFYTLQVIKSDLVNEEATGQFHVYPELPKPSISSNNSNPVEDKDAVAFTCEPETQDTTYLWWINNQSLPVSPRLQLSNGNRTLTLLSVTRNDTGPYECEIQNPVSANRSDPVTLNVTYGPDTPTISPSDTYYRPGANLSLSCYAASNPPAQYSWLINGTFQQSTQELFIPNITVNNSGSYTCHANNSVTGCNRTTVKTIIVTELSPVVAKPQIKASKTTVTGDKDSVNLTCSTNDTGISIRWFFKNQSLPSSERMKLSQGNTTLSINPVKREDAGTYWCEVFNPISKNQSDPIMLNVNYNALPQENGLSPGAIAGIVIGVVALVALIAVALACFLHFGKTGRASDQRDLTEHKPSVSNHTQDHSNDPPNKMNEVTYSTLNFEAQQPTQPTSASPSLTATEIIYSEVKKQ
The experiment is described as follows: flow cytometry on SW620-CEACAM1 cells. As for the experimental part: as §1, §2

A further experiment concerns the target T3, human CEACAM5 protein (human, UniProt P06731 35-685, limits assumed).
T3 construct: Protein used as ELISA coating; the immunogen was CEACAM5 protein (L2C01001) purified from tumor patients; also called CD66e; carcinoembryonic antigen cell adhesion molecule 5
T3 sequence (looked up): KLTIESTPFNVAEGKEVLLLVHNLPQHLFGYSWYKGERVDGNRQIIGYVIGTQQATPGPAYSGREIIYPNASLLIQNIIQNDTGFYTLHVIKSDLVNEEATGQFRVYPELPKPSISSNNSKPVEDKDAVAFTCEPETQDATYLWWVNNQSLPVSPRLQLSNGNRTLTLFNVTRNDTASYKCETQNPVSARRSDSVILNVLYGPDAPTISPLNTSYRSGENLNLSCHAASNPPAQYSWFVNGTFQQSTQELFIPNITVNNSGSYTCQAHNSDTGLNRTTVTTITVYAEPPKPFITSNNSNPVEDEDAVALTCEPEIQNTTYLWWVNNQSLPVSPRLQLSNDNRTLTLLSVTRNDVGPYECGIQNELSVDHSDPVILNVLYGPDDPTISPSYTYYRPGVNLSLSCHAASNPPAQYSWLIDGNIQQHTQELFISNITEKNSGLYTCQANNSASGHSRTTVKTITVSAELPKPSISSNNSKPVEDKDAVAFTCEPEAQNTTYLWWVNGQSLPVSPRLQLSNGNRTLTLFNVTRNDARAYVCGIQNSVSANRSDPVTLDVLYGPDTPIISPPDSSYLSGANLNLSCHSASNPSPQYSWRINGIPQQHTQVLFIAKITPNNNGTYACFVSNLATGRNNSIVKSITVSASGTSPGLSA
The experiment can be described thus: ELISA, plate coated with human CEACAM5 protein at 1 µg/mL, goat anti-human IgG HRP. Here is the method:
On the next day, it was first washed with 300 μL of PBST (Tween20: 0.5‰) for 3 times, then blocked with 100 μL/well of 5% BSA/PBS for 1 hour, and shaken at room temperature. Washing was performed 3 times with 300 μL of PBST. A series of dilution solutions of antibody samples were prepared with PBS, and added at 100 μL/well to the 96-well plate and shaken at room temperature for 1 hour. Washing was performed 3 times with 300 μL of PBST. A secondary antibody goat anti-human IgG HRP solution was prepared, added at 100 μL/well to the 96-well plate, and shaken at room temperature for 30 minutes. Washing was performed 4 times with 300 μL of PBST. 100 μL/well TMB was added to perform color development for 20 min. 100 μL/well of 0.6N H₂SO₄ was added to stop the color development, and OD450 nm was detected.

Experiment [3] deals with T4, CEACAM3 protein overexpressed on SW620 cells (UniProt P40198 35-252, limits assumed).
T4 construct: whole, on cells; also called SW620-CEACAM3
T4 sequence (looked up): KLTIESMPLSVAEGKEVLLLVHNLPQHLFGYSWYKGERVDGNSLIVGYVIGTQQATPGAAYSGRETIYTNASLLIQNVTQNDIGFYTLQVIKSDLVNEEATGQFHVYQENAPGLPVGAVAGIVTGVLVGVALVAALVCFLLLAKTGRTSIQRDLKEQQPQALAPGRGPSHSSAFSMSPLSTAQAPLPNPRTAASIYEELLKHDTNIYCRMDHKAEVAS
The experiment can be described thus: flow cytometry on SW620-CEACAM3 cells. Here is the method: as §1, §2

Experiment [4] addresses T5, human CEACAM5 protein naturally expressed on LOVO tumor cells (human, UniProt P06731 35-685).
T5 construct: whole, on cells; Cell-surface CEACAM5 on tumor cell lines; also called LOVO cells; CEACEM5
T5 sequence (looked up): T3 sequence (looked up)
The experiment can be described thus: flow cytometry on LOVO tumor cells that naturally express human CEACAM5. As for the experimental part:
as §1
Furthermore, we used FACS to detect the EC50 of the chimeric antibody UM05-6L binding to LOVO tumor cells that naturally expressed human CEACAM5. […] Based on the above results, the chimeric antibody UM05-6L had excellent binding affinity, specificity and selectivity to CEACAM5.

In experiment [5] the target is T6, CEACAM7 protein overexpressed on CHO cells (UniProt Q14002 36-242, limits assumed).
T6 construct: whole, on cells; also called CHO-CEACAM7
T6 sequence (looked up): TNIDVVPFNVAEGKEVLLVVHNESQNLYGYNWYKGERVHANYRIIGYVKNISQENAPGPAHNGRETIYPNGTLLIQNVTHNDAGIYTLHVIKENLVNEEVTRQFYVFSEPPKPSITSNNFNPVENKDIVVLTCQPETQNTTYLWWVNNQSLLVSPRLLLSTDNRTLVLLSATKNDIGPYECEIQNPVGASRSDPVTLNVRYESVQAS
The experiment is described as follows: flow cytometry on CHO-CEACAM7 cells. As for the experimental part: as §1, §2

B1: human-mouse chimeric antibody UM05-6L (antibody, human IgG1, kappa, V domains shown)
VH: EVQLQQSGPELVKPGASVKISCKASGYTFTDYYLNWVKQSPGKSLEWIGNINPINDFTTYNQKFKAKATLTVDKSSTTSYMALRSLTSEDSAVYYCTRYDGYFAYWGQGTTLTVSS
VL: DIQMNQSPSSLSASLGDTITITCHASQNINVWLSWYQQKPGNIPKLLIYKASNLHTGVPSRFSGSGSGTGFTLTISSLQPEDIATYYCQQGQSYPWTFGGGTKLEIKR
notes: expressed in HEK293 cells, purified on Protein A
Turning to B1, the binding result in experiment [1], in experiment [2], in experiment [3] and in experiment [5] was “no binding (tested: 3 µg/mL)” throughout. Moreover, the values for the EC50 (in the experiment with human CEACAM5 protein; in experiment [4]) were 0.0475 µg/mL and 0.276 µg/mL, respectively.
